Test results as given in article PMC12416549 (2024).
Positions count from the first letter of the chain named. Numbers in names are those of the source.

T1: TNFR1 (Homo sapiens, UniProt P19438)
T1 chain: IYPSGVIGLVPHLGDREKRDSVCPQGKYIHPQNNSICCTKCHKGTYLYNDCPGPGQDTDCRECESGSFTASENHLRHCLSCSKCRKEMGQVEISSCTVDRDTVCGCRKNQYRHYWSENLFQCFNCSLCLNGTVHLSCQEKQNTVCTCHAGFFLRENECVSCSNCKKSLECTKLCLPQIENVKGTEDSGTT

B1: Y101D (designed binder)
chain: SMEEEVEKAAKEYEKKKKEAIEKHLEKLKAKDKEAAERFLKELEEAAKEYAKDEAKTMSEEEAKRRAKKYKEKVLLSELSEEEQKEIKEAEEKLVRTILKDVEEAAK
B2: E83T (designed binder)
chain: B1 chain with E83T, D101Y
B3: E4D (designed binder)
chain: B1 chain with E4D, D101Y
B4: E22M (designed binder)
chain: B1 chain with E22M, D101Y
B5: S77W (designed binder)
chain: B1 chain with S77W, D101Y
B6: K88E (designed binder)
chain: B1 chain with K88E, D101Y
B7: R38N (designed binder)
chain: B1 chain with R38N, D101Y
B8: S1Q (designed binder)
chain: B1 chain with S1Q, D101Y
B9: A106Q (designed binder)
chain: B1 chain with D101Y, A106Q
B10: K64T (designed binder)
chain: B1 chain with K64T, D101Y
B11: M58L (designed binder)
chain: B1 chain with M58L, D101Y
B12: E26F (designed binder)
chain: B1 chain with E26F, D101Y
B13: R66E (designed binder)
chain: B1 chain with R66E, D101Y
B14: K71Y (designed binder)
chain: B1 chain with K71Y, D101Y
B15: M2A (designed binder)
chain: B1 chain with M2A, D101Y
B16: K41V (designed binder)
chain: B1 chain with K41V, D101Y
B17: I87M (designed binder)
chain: B1 chain with I87M, D101Y
B18: E72L (designed binder)
chain: B1 chain with E72L, D101Y
B19: E54T (designed binder)
chain: B1 chain with E54T, D101Y
B20: D53V (designed binder)
chain: B1 chain with D53V, D101Y
B21: L40E (designed binder)
chain: B1 chain with L40E, D101Y
B22: K88W (designed binder)
chain: B1 chain with K88W, D101Y
B23: A35W (designed binder)
chain: B1 chain with A35W, D101Y
B24: K73Y (designed binder)
chain: B1 chain with K73Y, D101Y
B25: K88V (designed binder)
chain: B1 chain with K88V, D101Y
B26: A36S (designed binder)
chain: B1 chain with A36S, D101Y
B27: L28K (designed binder)
chain: B1 chain with L28K, D101Y
B28: A46C (designed binder)
chain: B1 chain with A46C, D101Y
B29: A36F (designed binder)
chain: B1 chain with A36F, D101Y
B30: A90Q (designed binder)
chain: B1 chain with A90Q, D101Y
B31: K15I (designed binder)
chain: B1 chain with K15I, D101Y
B32: L43R (designed binder)
chain: B1 chain with L43R, D101Y
B33: L25V (designed binder)
chain: B1 chain with L25V, D101Y
B34: E61R (designed binder)
chain: B1 chain with E61R, D101Y
B35: E104T (designed binder)
chain: B1 chain with D101Y, E104T
B36: E34L (designed binder)
chain: B1 chain with E34L, D101Y
B37: E61C (designed binder)
chain: B1 chain with E61C, D101Y
B38: V74E (designed binder)
chain: B1 chain with V74E, D101Y
B39: E60G (designed binder)
chain: B1 chain with E60G, D101Y
B40: K41I (designed binder)
chain: B1 chain with K41I, D101Y
B41: S80A (designed binder)
chain: B1 chain with S80A, D101Y
B42: E61F (designed binder)
chain: B1 chain with E61F, D101Y
B43: K15S (designed binder)
chain: B1 chain with K15S, D101Y

Molecular target: T1, TNFR1
Experiment: yeast display SC50

Binder	apparent Kd (screen) [nM]
B1	0.446
B2	0.49
B3	0.446
B4	0.539
B5	1.05
B6	0.49
B7	2.48
B8	0.539
B9	2.05
B10	1.4
B11	2.73
B12	0.956
B13	18.3
B14	1.05
B15	0.49
B16	0.446
B17	10.4
B18	0.446
B19	12.5
B20	12.5
B21	0.49
B22	0.49

Binder	apparent Kd (screen) [nM]
B23	1.86
B24	10.4
B25	0.79
B26	1.05
B27	1.54
B28	1.86
B29	1.27
B30	0.49
B31	0.869
B32	13.8
B33	1.27
B34	2.48
B35	0.49
B36	0.446
B37	1.86
B38	0.304
B39	1.54
B40	0.539
B41	1.16
B42	0.718
B43	0.653
